Reference: paper PMC10783015

Assays:
[1] = target: T1, CRP (Salmonella enterica serovar Typhimurium ATCC 14028) (UniProt P0A2T6); assay: SPR; details: EMSA: 100 ng DNA in 1x TBE, 20 uL, 45 min at room temperature, 12% native PAGE, PargS competitor, 20 uM cAMP for CRP; SPR: streptavidin chip with biotinylated …
T1 sequence: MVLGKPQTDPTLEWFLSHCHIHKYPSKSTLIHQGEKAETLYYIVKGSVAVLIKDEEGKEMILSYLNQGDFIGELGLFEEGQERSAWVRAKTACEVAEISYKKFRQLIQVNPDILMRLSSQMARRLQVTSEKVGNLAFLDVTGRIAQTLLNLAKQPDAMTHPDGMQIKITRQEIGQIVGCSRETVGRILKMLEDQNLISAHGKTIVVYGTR

[2] = target: T2, H-NS (Salmonella enterica serovar Typhimurium ATCC 14028) (UniProt P0A1S2); assay: SPR; details: EMSA: 100 ng DNA in 1x TBE, 20 uL, 45 min at room temperature, 12% native PAGE, PargS competitor, 20 uM cAMP for CRP; SPR: streptavidin chip with biotinylated …
T2 sequence: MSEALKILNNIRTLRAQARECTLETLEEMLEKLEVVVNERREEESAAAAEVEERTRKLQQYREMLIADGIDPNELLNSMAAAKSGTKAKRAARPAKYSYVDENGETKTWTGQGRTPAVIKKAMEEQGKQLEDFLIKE

Sequence | binding [1] | Kd [1] | binding [2]
CTTATGTCGGTCATTGCCGTAGCGCTGCCGACGATCTTATAGCTATTGAGAACTCTCGTTTCACAACCTATGTTTTAATTTCAAAACGATCAATAATGAAACTTATGTTTTGTTATGGGTATCACATTTCGAATTTCATAATCCTGGCGTTTTTTATCGTT (double strand) [PiolT1 SPR] | no binding |  | 
AAGAGCCTGAATATTCACCGGAATACCTTACGTTTATGAAGCGGGCTGTATTGCCCGCGCCAGTTTAAGAATTAGGGCGGGAGTATACTGCAAATGCCCGTTGGCGTCAGCATTGCGCGCGCGGCGCGTCGCCTGAAATATACGCAACAATAATCTGCATAAGCATTCAATAAACGCCCAATCAAATCAAAGGTTG (double strand) [PargS SPR] |  | 1 nM | no binding
